Measured values as given in PMC9296572, “An Unusual Oxidative Rearrangement Catalyzed by a Divergent Member of the 2‐Oxoglutarate‐Dependent Dioxygenase Superfamily during Biosynthesis of Dehydrofosmidomycin” (Angewandte Chemie (International Ed. in English), 2022).

Test system: C[N+](C)(C)CCP(=O)([O-])O
Assay: O2 consumption, Clark-type electrode, initial rates in first minute
Assay type: biochemical, Streptomyces lavendulae
Conditions: apparent; co-substrates 2-oxoglutarate and O2, Fe(II); two-turnover enzyme, value assumed to pertain to the desaturation to TMAVP

DfmD (Streptomyces lavendulae)
Km: 160 µM | kcat: 0.04 s⁻¹
